Data: PMC8536467 (Molecular cell, 2021)
Where no end group is shown, it is not given here. Me2 = dimethyl (dimethylated lysine)

Target: Human 53BP1-Tudor (residues 1484-1603) (human, UniProt Q12888 1484-1603)
Experiment: ITC

Human 53BP1-Tudor (residues 1484-1603), sequence (Q12888 1484-1603): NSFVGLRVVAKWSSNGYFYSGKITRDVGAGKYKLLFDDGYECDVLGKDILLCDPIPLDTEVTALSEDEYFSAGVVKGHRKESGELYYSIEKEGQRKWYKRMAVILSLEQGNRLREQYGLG

Row | Binder | Kd [µM]
1 | TSRHKK(Me2)LMFK (peptide, UniProt P04637 377-386, looked up) [p53K382me2 peptide (residues 377-386)] | 8
2 | SSHLK(Me2)SKKGQ (peptide, UniProt P04637 366-375, looked up) [p53K370me2 peptide (residues 366-375)] | 52
